# Assay results taken from patent US20150344570A1 (published 2015).
# Biological target: T1, FcγRIIIa extracellular domain with C-terminal His tag (human, UniProt P08637 17-208)
# T1 construct: extracellular domain; also called FcgRIIIa; 3a; not shown: His tag attached to the C terminus
# Assay: SPR Biacore, captured antibody, FcγR analyte, relative binding
# Description: Analysis of interaction between objective antibody and the FcγR was carried out using Biacore T100 (GE Healthcare). HBS-EP+ (GE Healthcare) was used as the running buffer, and the measurement temperature was set to 25° C. Chips produced by immobilizing the antigen peptide by the amine coupling method to a Series S Sencor Chip CM5 (GE Healthcare), or alternatively, chips produced by allowing preliminarily biotinylated antigen peptides to interact with and immobilize onto a Series S Sensor Chip SA (certified) (GE Healthcare) were used. Antibodies of interest were captured onto an antigen peptide-immobilized chip, and allowed to interact to each FcγR diluted with running buffer. To regenerate and repeatedly use the chip, the antibodies captured on the chip were washed off by reacting 10 mM glycine-HCl, pH 1.5.
# T1 sequence (P08637 17-208): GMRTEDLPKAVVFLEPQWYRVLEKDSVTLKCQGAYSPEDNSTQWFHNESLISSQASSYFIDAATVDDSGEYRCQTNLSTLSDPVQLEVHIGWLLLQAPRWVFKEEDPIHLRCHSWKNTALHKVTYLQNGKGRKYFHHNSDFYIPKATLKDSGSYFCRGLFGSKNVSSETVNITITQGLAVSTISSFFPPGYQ
row,Ho/Con_3a,Binder
1,112 % of HoCon Ab GpH7-B3/GpL16-k0 (=100),"GpH7-B3 variant I332_13S/GpL16-k0 (antibody, human IgG1, kappa, also called Ho Ab I332_13S) heavy: not shown light: DIVMTQSPLSLPVTPGEPASISCQASESLVHSNRNTYLHWYLQKPGQSPQLLIYKVSNRFSGVPDRFSGSGSGTDFTLKISRVEAEDVGVYYCSQNTHVPPTFGQGTKVEIERTVAAPSVFIFPPSDEQLKSGTASVVCLLNNFYPREAKVQWKVDNALQSGNSQESVTEQDSKDSTYSLSSTLTLSKADYEKHKVYACEVTHQGLSSPVTKSFNRGEC"
2,138 % of HoCon Ab GpH7-B3/GpL16-k0 (=100),"GpH7-B3 variant I332_14T/GpL16-k0 (antibody, human IgG1, kappa, also called Ho Ab I332_14T) heavy: not shown light: DIVMTQSPLSLPVTPGEPASISCQASESLVHSNRNTYLHWYLQKPGQSPQLLIYKVSNRFSGVPDRFSGSGSGTDFTLKISRVEAEDVGVYYCSQNTHVPPTFGQGTKVEIERTVAAPSVFIFPPSDEQLKSGTASVVCLLNNFYPREAKVQWKVDNALQSGNSQESVTEQDSKDSTYSLSSTLTLSKADYEKHKVYACEVTHQGLSSPVTKSFNRGEC"
3,123 % of HoCon Ab GpH7-B3/GpL16-k0 (=100),"GpH7-B3 variant I336_14T/GpL16-k0 (antibody, human IgG1, kappa, also called Ho Ab I336_14T) heavy: not shown light: DIVMTQSPLSLPVTPGEPASISCQASESLVHSNRNTYLHWYLQKPGQSPQLLIYKVSNRFSGVPDRFSGSGSGTDFTLKISRVEAEDVGVYYCSQNTHVPPTFGQGTKVEIERTVAAPSVFIFPPSDEQLKSGTASVVCLLNNFYPREAKVQWKVDNALQSGNSQESVTEQDSKDSTYSLSSTLTLSKADYEKHKVYACEVTHQGLSSPVTKSFNRGEC"
4,134 % of HoCon Ab GpH7-B3/GpL16-k0 (=100),"GpH7-B3 variant K326_07I/GpL16-k0 (antibody, human IgG1, kappa, also called Ho Ab K326_07I) heavy: not shown light: DIVMTQSPLSLPVTPGEPASISCQASESLVHSNRNTYLHWYLQKPGQSPQLLIYKVSNRFSGVPDRFSGSGSGTDFTLKISRVEAEDVGVYYCSQNTHVPPTFGQGTKVEIERTVAAPSVFIFPPSDEQLKSGTASVVCLLNNFYPREAKVQWKVDNALQSGNSQESVTEQDSKDSTYSLSSTLTLSKADYEKHKVYACEVTHQGLSSPVTKSFNRGEC"
5,107 % of HoCon Ab GpH7-B3/GpL16-k0 (=100),"GpH7-B3 variant I336_06M/GpL16-k0 (antibody, human IgG1, kappa, also called Ho Ab I336_06M) heavy: not shown light: DIVMTQSPLSLPVTPGEPASISCQASESLVHSNRNTYLHWYLQKPGQSPQLLIYKVSNRFSGVPDRFSGSGSGTDFTLKISRVEAEDVGVYYCSQNTHVPPTFGQGTKVEIERTVAAPSVFIFPPSDEQLKSGTASVVCLLNNFYPREAKVQWKVDNALQSGNSQESVTEQDSKDSTYSLSSTLTLSKADYEKHKVYACEVTHQGLSSPVTKSFNRGEC"
6,130 % of HoCon Ab GpH7-B3/GpL16-k0 (=100),"GpH7-B3 variant I336_10E/GpL16-k0 (antibody, human IgG1, kappa, also called Ho Ab I336_10E) heavy: not shown light: DIVMTQSPLSLPVTPGEPASISCQASESLVHSNRNTYLHWYLQKPGQSPQLLIYKVSNRFSGVPDRFSGSGSGTDFTLKISRVEAEDVGVYYCSQNTHVPPTFGQGTKVEIERTVAAPSVFIFPPSDEQLKSGTASVVCLLNNFYPREAKVQWKVDNALQSGNSQESVTEQDSKDSTYSLSSTLTLSKADYEKHKVYACEVTHQGLSSPVTKSFNRGEC"
7,101 % of HoCon Ab GpH7-B3/GpL16-k0 (=100),"GpH7-B3 variant I336_18N/GpL16-k0 (antibody, human IgG1, kappa, also called Ho Ab I336_18N) heavy: not shown light: DIVMTQSPLSLPVTPGEPASISCQASESLVHSNRNTYLHWYLQKPGQSPQLLIYKVSNRFSGVPDRFSGSGSGTDFTLKISRVEAEDVGVYYCSQNTHVPPTFGQGTKVEIERTVAAPSVFIFPPSDEQLKSGTASVVCLLNNFYPREAKVQWKVDNALQSGNSQESVTEQDSKDSTYSLSSTLTLSKADYEKHKVYACEVTHQGLSSPVTKSFNRGEC"
8,104 % of HoCon Ab GpH7-B3/GpL16-k0 (=100),"GpH7-B3 variant I336_02A/GpL16-k0 (antibody, human IgG1, kappa, also called Ho Ab I336_02A) heavy: not shown light: DIVMTQSPLSLPVTPGEPASISCQASESLVHSNRNTYLHWYLQKPGQSPQLLIYKVSNRFSGVPDRFSGSGSGTDFTLKISRVEAEDVGVYYCSQNTHVPPTFGQGTKVEIERTVAAPSVFIFPPSDEQLKSGTASVVCLLNNFYPREAKVQWKVDNALQSGNSQESVTEQDSKDSTYSLSSTLTLSKADYEKHKVYACEVTHQGLSSPVTKSFNRGEC"
9,103 % of HoCon Ab GpH7-B3/GpL16-k0 (=100),"GpH7-B3 variant K326_04F/GpL16-k0 (antibody, human IgG1, kappa, also called Ho Ab K326_04F) heavy: not shown light: DIVMTQSPLSLPVTPGEPASISCQASESLVHSNRNTYLHWYLQKPGQSPQLLIYKVSNRFSGVPDRFSGSGSGTDFTLKISRVEAEDVGVYYCSQNTHVPPTFGQGTKVEIERTVAAPSVFIFPPSDEQLKSGTASVVCLLNNFYPREAKVQWKVDNALQSGNSQESVTEQDSKDSTYSLSSTLTLSKADYEKHKVYACEVTHQGLSSPVTKSFNRGEC"
10,137 % of HoCon Ab GpH7-B3/GpL16-k0 (=100),"GpH7-B3 variant K326_03V/GpL16-k0 (antibody, human IgG1, kappa, also called Ho Ab K326_03V) heavy: not shown light: DIVMTQSPLSLPVTPGEPASISCQASESLVHSNRNTYLHWYLQKPGQSPQLLIYKVSNRFSGVPDRFSGSGSGTDFTLKISRVEAEDVGVYYCSQNTHVPPTFGQGTKVEIERTVAAPSVFIFPPSDEQLKSGTASVVCLLNNFYPREAKVQWKVDNALQSGNSQESVTEQDSKDSTYSLSSTLTLSKADYEKHKVYACEVTHQGLSSPVTKSFNRGEC"
11,111 % of HoCon Ab GpH7-B3/GpL16-k0 (=100),"GpH7-B3 variant I336_09D/GpL16-k0 (antibody, human IgG1, kappa, also called Ho Ab I336_09D) heavy: not shown light: DIVMTQSPLSLPVTPGEPASISCQASESLVHSNRNTYLHWYLQKPGQSPQLLIYKVSNRFSGVPDRFSGSGSGTDFTLKISRVEAEDVGVYYCSQNTHVPPTFGQGTKVEIERTVAAPSVFIFPPSDEQLKSGTASVVCLLNNFYPREAKVQWKVDNALQSGNSQESVTEQDSKDSTYSLSSTLTLSKADYEKHKVYACEVTHQGLSSPVTKSFNRGEC"
12,110 % of HoCon Ab GpH7-B3/GpL16-k0 (=100),"GpH7-B3 variant I336_03V/GpL16-k0 (antibody, human IgG1, kappa, also called Ho Ab I336_03V) heavy: not shown light: DIVMTQSPLSLPVTPGEPASISCQASESLVHSNRNTYLHWYLQKPGQSPQLLIYKVSNRFSGVPDRFSGSGSGTDFTLKISRVEAEDVGVYYCSQNTHVPPTFGQGTKVEIERTVAAPSVFIFPPSDEQLKSGTASVVCLLNNFYPREAKVQWKVDNALQSGNSQESVTEQDSKDSTYSLSSTLTLSKADYEKHKVYACEVTHQGLSSPVTKSFNRGEC"
13,118 % of HoCon Ab GpH7-B3/GpL16-k0 (=100),"GpH7-B3 variant I332_19Q/GpL16-k0 (antibody, human IgG1, kappa, also called Ho Ab I332_19Q) heavy: not shown light: DIVMTQSPLSLPVTPGEPASISCQASESLVHSNRNTYLHWYLQKPGQSPQLLIYKVSNRFSGVPDRFSGSGSGTDFTLKISRVEAEDVGVYYCSQNTHVPPTFGQGTKVEIERTVAAPSVFIFPPSDEQLKSGTASVVCLLNNFYPREAKVQWKVDNALQSGNSQESVTEQDSKDSTYSLSSTLTLSKADYEKHKVYACEVTHQGLSSPVTKSFNRGEC"
14,106 % of HoCon Ab GpH7-B3/GpL16-k0 (=100),"GpH7-B3 variant I332_15Y/GpL16-k0 (antibody, human IgG1, kappa, also called Ho Ab I332_15Y) heavy: not shown light: DIVMTQSPLSLPVTPGEPASISCQASESLVHSNRNTYLHWYLQKPGQSPQLLIYKVSNRFSGVPDRFSGSGSGTDFTLKISRVEAEDVGVYYCSQNTHVPPTFGQGTKVEIERTVAAPSVFIFPPSDEQLKSGTASVVCLLNNFYPREAKVQWKVDNALQSGNSQESVTEQDSKDSTYSLSSTLTLSKADYEKHKVYACEVTHQGLSSPVTKSFNRGEC"
15,129 % of HoCon Ab GpH7-B3/GpL16-k0 (=100),"GpH7-B3 variant K326_06M/GpL16-k0 (antibody, human IgG1, kappa, also called Ho Ab K326_06M) heavy: not shown light: DIVMTQSPLSLPVTPGEPASISCQASESLVHSNRNTYLHWYLQKPGQSPQLLIYKVSNRFSGVPDRFSGSGSGTDFTLKISRVEAEDVGVYYCSQNTHVPPTFGQGTKVEIERTVAAPSVFIFPPSDEQLKSGTASVVCLLNNFYPREAKVQWKVDNALQSGNSQESVTEQDSKDSTYSLSSTLTLSKADYEKHKVYACEVTHQGLSSPVTKSFNRGEC"
16,119 % of HoCon Ab GpH7-B3/GpL16-k0 (=100),"GpH7-B3 variant I336_13S/GpL16-k0 (antibody, human IgG1, kappa, also called Ho Ab I336_13S) heavy: not shown light: DIVMTQSPLSLPVTPGEPASISCQASESLVHSNRNTYLHWYLQKPGQSPQLLIYKVSNRFSGVPDRFSGSGSGTDFTLKISRVEAEDVGVYYCSQNTHVPPTFGQGTKVEIERTVAAPSVFIFPPSDEQLKSGTASVVCLLNNFYPREAKVQWKVDNALQSGNSQESVTEQDSKDSTYSLSSTLTLSKADYEKHKVYACEVTHQGLSSPVTKSFNRGEC"
